Residue numbers refer to the chain shown, from its start. Numbers in names are those of the source. Read-outs that look alike come from different tables or passages of the source.
B1: ETR1^D25A: ETR1 with site-directed mutation of Asp25 to Ala (protein, UniProt P49333 1-738, looked up, variant D25A)
Ethylene receptor 1: MEVCNCIEPQWPADELLMKYQYISAFFIAIAYFSIPLELIYFVKKSAVFPYRWVLVQFGAFIVLCGATHLINLWTFTTHSRTVALVMTTAKVLTAVVSCATALMLVHIIPDLLSVKTRELFLKNKAAELDREMGLIRTQEETGRHVRMLTHEIRSTLDRHTILKTTLVELGRTLALEECALWMPTRTGLELQLSYTLRHQHPVEYTVPIQLPVINQVFGTSRAVKISPNSPVARLRPVSGKYMLGEVVAVRVPLLHLSNFQINDWPELSTKRYALMVLMLPSDSARQWHVHELELVEVVADQVAVALSHAAILEESMRARDLLMEQNVALDLARREAETAIRARNDFLAVMNHEMRTPMHAIIALSSLLQETELTPEQRLMVETILKSSNLLATLMNDVLDLSRLEDGSLQLELGTFNLHTLFREVLNLIKPIAVVKKLPITLNLAPDLPEFVVGDEKRLMQIILNIVGNAVKFSKQGSISVTALVTKSDTRAADFFVVPTGSHFYLRVKVKDSGAGINPQDIPKIFTKFAQTQSLATRSSGGSGLGLAISKRFVNLMEGNIWIESDGLGKGCTAIFDVKLGISERSNESKQSGIPKVPAIPRHSNFTGLKVLVMDENGVSRMVTKGLLVHLGCEVTTVSSNEECLRVVSHEHKVVFMDVCMPGVENYQIALRIHEKFTKQRHQRPLLVALSGNTDKSTKEKCMSFGLDGVLLKPVSLDNIRDVLSDLLEPRVLYEGM
B2: ETR1^K91R: ETR1 with basic Lys91 replaced by Arg (protein, UniProt P49333 1-738, looked up, variant K91R)
Ethylene receptor 1: B1 Ethylene receptor 1 with A25D, K91R
B3: ETR1^K91A: ETR1 with Lys91 replaced by smaller nonpolar sidechain (Ala) (protein, UniProt P49333 1-738, looked up, variant K91A)
Ethylene receptor 1: B1 Ethylene receptor 1 with A25D, K91A
B4: ETR1^D25E: ETR1 with Asp25 replaced by Glu (protein, UniProt P49333 1-738, looked up, variant D25E)
Ethylene receptor 1: B1 Ethylene receptor 1 with A25E
B5: ETR1^D25N,K91M: ETR1 combining Asp25Asn with K91M (protein, UniProt P49333 1-738, looked up, variant D25N K91M)
Ethylene receptor 1: B1 Ethylene receptor 1 with A25N, K91M
B6: ETR1^D25N,K91R: ETR1 combining Asp25Asn with K91R (protein, UniProt P49333 1-738, looked up, variant D25N K91R)
Ethylene receptor 1: B1 Ethylene receptor 1 with A25N, K91R
B7: ETR1^D25Q: ETR1 with Asp25 replaced by Gln (protein, UniProt P49333 1-738, looked up, variant D25Q)
Ethylene receptor 1: B1 Ethylene receptor 1 with A25Q
B8: ETR1^K91M: ETR1 with Lys91 replaced by a nonpolar sidechain of similar size (Met) (protein, UniProt P49333 1-738, looked up, variant K91M)
Ethylene receptor 1: B1 Ethylene receptor 1 with A25D, K91M
B9: ETR1^D25N,K91A: ETR1 combining Asp25Asn with K91A (protein, UniProt P49333 1-738, looked up, variant D25N K91A)
Ethylene receptor 1: B1 Ethylene receptor 1 with A25N, K91A

How the values were obtained:
[1] = tested on: dark-grown Arabidopsis seedlings; experiment: Silver sensitivity assay: effect of silver on ethylene response of dark-grown seedlings; format: in vivo
Text: As an initial test for the feasibility of the first hypothesis, Applicant asked if ETR1^D25N could still bind a metal cofactor, and therefore potentially ethylene, in planta. For this purpose, Applicant examined the effects of silver (Ag) on ethylene sensitivity. Silver is thought to substitute for the copper cofactor and, although receptors containing silver can still bind ethylene, they no longer transmit the signal, resulting in ethylene insensitivity.

[2] = Saturable [14C]ethylene binding to yeast transgenically expressing ETR1; parameters: species or system Saccharomyces cerevisiae; details: 0.21 μL L^−1 [14C]ethylene; for saturable [14C]ethylene binding: with or without excess [12C]ethylene; for ethylene binding relative to ETR1^wt: % of wild-type binding
Text: Saturable ethylene binding of the ETR1 Asp25 mutants was examined by heterologous expression in yeast, with binding to [^14C]ethylene determined in the presence or absence of excess [^12C]ethylene (FIG. 2C). […] This included the ETR1^D25A mutant, consistent with previous observations, as well as for the ETR1^D25N and ETR1^D25Q mutants (FIG. 2C). Results from the ethylene binding assay are therefore consistent with the negative charge at D25 playing a significant role in mediating high-affinity ethylene binding.
[^14C]ethylene (specific activity=116 mCi/mmol) was obtained from ViTrax Radiochemicals (Placentia, CA) and trapped as the mercuric perchlorate complex as described. For ethylene binding assays in yeast, ETR1 was expressed in the yeast Saccharomyces cerevisiae (strain FY834) using the vector pYcDE-2 and a constitutive ADC1 promoter. The yeast growth media was supplemented with 40 μg L^−1 copper sulfate. Saturable ethylene binding to yeast was determined by analyzing binding of 0.3 g yeast per sample to 0.21 μL L^−1 [^14C]ethylene, in the presence or absence of excess [^12C]ethylene.

[3] = tested on: Arabidopsis seedlings, etr1 etr2 ein4 background; experiment: Triple-response hypocotyl growth assay of dark-grown seedlings expressing ETR1 transgenes; format: in vivo; details: for rescue of growth of etr1 etr2 ein4 triple mutant in air: absence of ethylene, hypocotyl and adult shoot growth; for hypocotyl growth response to ethylene: dark-grown seedlings, 0 or 1 μL L^−1 ethylene
Description: Functionality of the ETR1 Asp25 mutants was tested by transgenic expression in the etr1 etr2 ein4 Arabidopsis background.
Applicant can thus exploit the triple mutant to assess the ability of the ETR1 transgenes to rescue growth in the absence of ethylene as well as their ability to mediate a response to ethylene. Such an analysis indicates whether the encoded receptors are able to assume the ‘on’ conformation that represses the ethylene response in air, as well as the ‘off’ conformation that occurs in response to ethylene binding.
(§1) All Arabidopsis lines were of the Columbia (Col-0) accession. The etr1-1 and etr1-6 etr2-3 ein4-4 mutant lines have been described. Analysis of the triple response of dark-grown Arabidopsis seedlings to ethylene was performed as described previously. Briefly, seedlings were grown at 22° C. on vertically oriented plates on half-strength Murashige and Skoog basal medium with Gamborg's vitamins (pH 5.75; Sigma), 0.8% (w/v) agar, and 5 μM aminoethoxyvinylglycine (AVG) to inhibit ethylene biosynthesis. The stratified seed was exposed to light for 8 hr and then moved to the dark in the presence or absence of ethylene, with analysis of the seedling growth being performed following 4 days total growth. For short-term kinetic analysis of dark-grown seedlings, time-lapse imaging and growth rate analysis of hypocotyls were carried out as described previously.

[4] = previously reported, cited from earlier work
[5] = tested on: OSR1, ERF1, EXP5 and EXPb1 expression; experiment: Ethylene-dependent gene expression by RT-qPCR; format: in vivo, Arabidopsis; details: 0 or 1 μL L^−1 ethylene for 2 hr
Description: To examine the short-term molecular response, Applicant characterized ethylene-dependent gene expression for the ETR1 Asp25 mutants (FIG. 6B). Expression of OSR1 and ERF1 is induced, whereas the expression of EXP5 and EXPb1 is repressed, in response to ethylene.
RNA isolation and RT-qPCR was performed with three biological replicates and two technical replicates of each.

[6] = tested on: Arabidopsis seedlings, etr1 etr2 ein4 background; details: previously reported; cited from earlier work
[7] = Copper binding assay: purified ETR1 transmembrane domain titrated to BCA2-Cu(I) complex, absorbance at 562 nm; details: ETR1-TMD expressed and purified from E. coli; Cu(I) stabilized by BCA
Text: Cu(I) was stabilized by the copper chelator BCA, and then titrated with increasing ETR1 protein concentration.
Titration curves were corrected for nonspecific binding observed with chemically and thermally denatured receptor to maximize signal to background levels.

[8] = tested on: Arabidopsis seedlings, etr1 etr2 ein4 background; experiment: Short-term kinetic analysis of hypocotyl growth response to ethylene; format: in vivo; details: 10 μL/L ethylene for 2 hr
Description: Based on the differences Applicant uncovered for the long-term ethylene growth responses for the Asp25 mutants, Applicant also analyzed their short-term hypocotyl growth and molecular responses to ethylene. To this end, Applicant performed a short-term kinetic analysis, analyzing the initial hypocotyl growth inhibition in response to 10 μL/L ethylene and the growth recovery following the removal of ethylene after two hours of treatment (FIG. 6A).
as §1

Molecule | saturable [14C]ethylene binding [2] | rescue of growth of etr1 etr2 ein4 triple mutant in air [3] | hypocotyl growth response to ethylene [3] | molecular response to ethylene (ethylene-dependent gene expression) [5] | copper binding [7] | short-term hypocotyl growth response to ethylene [8] | ethylene binding relative to ETR1^wt [2] | further results
[Ag] [silver, reference compound] | – | – | – | – | – | – | – | effect of silver on ethylene response of etr1 etr2 ein4 triple mutant ([1]; etr1 etr2 ein4, 10 μL/L ethylene): still responsive to ethylene; effect of silver on ethylene response of wild-type seedlings ([1]; wild-type, 10 μL/L ethylene): blocked
B1 | No saturable [^14C]ethylene binding was detected | rescued growth | conferred ethylene insensitivity | various levels of hyposensitivity | no copper binding | exhibit ethylene insensitivity | – | ethylene binding (previous studies) [4]: eliminate ethylene binding; ethylene binding (previous studies) ([4]; listed as D25A): abolishes ethylene binding; ethylene sensitivity of plants (previous studies) [6]: confers dominant ethylene-insensitivity
B2 | – | – | conferred ethylene hyposensitivity | – | – | – | 63% | –
B3 | – | – | a phenotype similar to that of the ETR1^K91M mutant or complete ethylene insensitivity | – | – | – | 1% | ethylene binding (previous studies) [4]: low level of ethylene binding ability; ethylene sensitivity of plants (previous studies) [6]: confer ethylene insensitivity
B4 | substantially reduced | rescued growth | conferred ethylene insensitivity | various levels of hyposensitivity | minimal residual binding | exhibit ethylene insensitivity | – | –
B5 | – | – | further reduction in the ability to rescue seedling growth and respond to ethylene | – | – | – | – | –
B6 | – | – | more insensitive to ethylene than the ETR1^K91R mutant | – | – | – | – | –
B7 | No saturable [^14C]ethylene binding was detected | rescued growth | conferred ethylene insensitivity | various levels of hyposensitivity | minimal residual binding | exhibit ethylene insensitivity | – | –
B8 | – | failed to rescue seedling growth efficiently | partial ethylene hyposensitivity | – | – | – | approximately 6% | –
B9 | – | – | all ethylene insensitive | – | – | – | – | –

— patent publication US20250027955A1, “ETHYLENE RECEPTORS AND BINDING DOMAINS WITH MODIFIED BINDING KINETICS FOR ETHYLENE” (Trustees of Dartmouth College, priority 2022, published 2025)
